Series [1] concerns the molecule itself. The series can be described thus: crystal structure; PaPPase in DM with 2 mM IDP, vapour diffusion, 30-33% PEG 400, 0.1 M MES pH 6.5, 0.05 M LiSO4, 0.05 M NaCl, 20 °C; eight datasets combined, molecular replacement with a 5LZQ-based model.
Series [2] deals with the molecule itself. The series can be described thus: crystal structure; time-resolved cryo-trapping: TmPPase in OGNG crystallised with K4PPi and without Na+, soaked in a Na+ trigger solution for 0-3600 s, flash cooled; molecular replacement with 4AV3.

B1: K+-independent H+-pumping membrane-bound pyrophosphatase from Pyrobaculum aerophilum (PaPPase), wild type (enzyme, UniProt Q8ZWI8 1-721, looked up)
chain: MNMISYALLGVILGISGVIYAVYLAVWVLRQDPGNEKMRFISQAIATGARAYLFRQYRTLAVLLVILAVLILVAIDMPRRTFGLTALAFIVGALGSMLAGYLGMYVTTRSASRVAQAAATGGMGKALLVSWRAGAVMGLSLASIALLLISGFYLVFRSVLPDDWAVPLVALGFGASLVTLFMRVGGGIYTKAADLGADLVGKVEAGIPEDDPRNPGVIADNVGDNVGDVAGMAADVYESYIVTVTAAIFLAAILGLPTQFIEAIILFAALALVATFAGVNLLKTTGVKHPLSSISLAIYATIGLSVVLFFIGAFTLGLDSTKALALAATTSLGAVIAPLIVKITDYYTSYNYGPVRKIAEQAKISPATVIITGYGVGLMSAIPVIAVIVAVLGISYMIGYYTVPVSGFGELSKYLAGIFGTAMASVGLLVVAGIIITADSYGPVSDNAGGVVEMAGLPDEVREITDVLDSVGNTTKATTKGYAIASAALAALVLFIALIFEIVYSASKILGKGIVDMISESLSGLQLINANVLIGAFLGVALVYFFSSRTLEAVGRTAMEIVEEIRRQFREKPGILEWKEQPDYARVVDIATRRALGEFLIPGLAAIVLPLITGLLLGWNALAGLIMGAIVAGVPRALLMANAGGAWDNAKKYIEIQGLKKTEMHKAAVIGDTVGDPMKDTVGPSLNPLIKVLNTLSVVFTYVIVSTNIALGIWPSGLLPF
notes: No tag cleavage is mentioned; also called PaPPase:Mg5IDP; K+-independent H+-PPase; source: S. cerevisiae BJ1991, purified (hot-solve solubilisation, nickel-NTA; DM for crystals)
With B1, the binding result in series [1] was “binds”.

B2: K+-dependent Na+-pumping membrane-bound pyrophosphatase from Thermotoga maritima (TmPPase), wild type (enzyme, UniProt Q9S5X0 1-726, looked up)
chain: MYVAALFFLIPLVALGFAAANFAAVVRKPEGTERMKEISSYIRSGADSFLAHETKAIFKVAIVIAILLMIFTTWQTGVAFLLGAVMSASAGIVGMKMATRANVRVAEAARTTKKIGPALKVAYQGGSVMGLSVGGFALLGLVLVYLIFGKWMGQVDNLNIYTNWLGINFVPFAMTVSGYALGCSIIAMFDRVGGGVYTKAADMAADLVGKTELNLPEDDPRNPATIADNVGDNVGDVAGLGADLLESFVGAIVSSIILASYMFPIYVQKIGENLVHQVPKETIQALISYPIFFALVGLGCSMLGILYVIVKKPSDNPQRELNISLWTSALLTVVLTAFLTYFYLKDLQGLDVVGFRFGAISPWFSAIIGIFSGILIGFWAEYYTSYRYKPTQFLSKSSIEGTGMVISNGLSLGMKSVFPPTLTLVLGILFADYFAGLYGVAIAALGMLSFVATSVSVDSYGPIADNAGGISEMCELDPEVRKITDHLDAVGNTTAAIGKGFAIGSAIFAALSLFASYMFSQISPSDIGKPPSLVLLLNMLDARVIAGALLGAAITYYFSGYLISAVTKAAMKMVDEIRRQAREIPGLLEGKAKPDYNRCIEITSDNALKQMGYPAFIAILTPLVTGFLLGAEFVGGVLIGTVLSGAMLAILTANSGGAWDNAKKYLEAGNLEGYGKGSEPHKALVIGDTVGDPLKDTVGPSLDILIKIMSVVSVIAVSIFKHVHLF
notes: No tag cleavage is mentioned; also called K+-dependent Na+-PPase; Na+-PPase; source: S. cerevisiae BJ1991, purified (hot-solve solubilisation, nickel-NTA; OGNG)
In the case of B2, the binding result in series [2] is “binds”.

For the origin of these results see article PMC10897367, “Functional and structural asymmetry suggest a unifying principle for catalysis in membrane-bound pyrophosphatases” (EMBO Reports, 2024).
